Data from patent US20140287471A1, “VARIANT CBH I POLYPEPTIDES WITH REDUCED PRODUCT INHIBITION” (BP CORPORATION NORTN AMERICA INC., priority 2011, published 2014).
Where a chain is given by its changes, count along the chain named. Names and notes keep the numbering of the source.

B1: 268— Phe (protein, UniProt P62694 18-513, looked up, variant R268F)
Exoglucanase 1: QSACTLQSETHPPLTWQKCSSGGTCTQQTGSVVIDANWRWTHATNSSTNCYDGNTWSSTLCPDNETCAKNCCLDGAAYASTYGVTTSGNSLSIGFVTQSAQKNVGARLYLMASDTTYQEFTLLGNEFSFDVDVSQLPCGLNGALYFVSMDADGGVSKYPTNTAGAKYGTGYCDSQCPRDLKFINGQANVEGWEPSSNNANTGIGGHGSCCSEMDIWEANSISEALTPHPCTTVGQEICEGDGCGGTYSDNFYGGTCDPDGCDWNPYRLGNTSFYGPGSSFTLDTTKKLTVVTQFETSGAINRYYVQNGVTFQQPNAELGSYSGNELNDDYCTAEEAEFGGSSFSDKGGLTQFKKATSGGMVLVMSLWDDYYANMLWLDSTYPTNETSSTPGAVRGSCSTSSGVPAQVESQSPNAKVTFSNIKFGPIGSTGNPSGGNPPGGNRGTTTTRRPATTTGSSPGPTQSHYGQCGGIGYSGPTVCASGTTCQVLNPYYSQCL
B2: 268_+411A Pro (protein, UniProt P62694 18-513, looked up, variant R268P R411A)
Exoglucanase 1: B1 Exoglucanase 1 with F251P, R394A
B3: 268A+411— Leu (protein, UniProt P62694 18-513, looked up, variant R268A R411L)
Exoglucanase 1: B1 Exoglucanase 1 with F251A, R394L
B4: 268— Asn (protein, UniProt P62694 18-513, looked up, variant R268N)
Exoglucanase 1: B1 Exoglucanase 1 with F251N
B5: 268A+411— Ile (protein, UniProt P62694 18-513, looked up, variant R268A R411I)
Exoglucanase 1: B1 Exoglucanase 1 with F251A, R394I
B6: 268— Ser (protein, UniProt P62694 18-513, looked up, variant R268S)
Exoglucanase 1: B1 Exoglucanase 1 with F251S
B7: 268— Asp (protein, UniProt P62694 18-513, looked up, variant R268D)
Exoglucanase 1: B1 Exoglucanase 1 with F251D
B8: 268— Thr (protein, UniProt P62694 18-513, looked up, variant R268T)
Exoglucanase 1: B1 Exoglucanase 1 with F251T
B9: 268— Trp (protein, UniProt P62694 18-513, looked up, variant R268W)
Exoglucanase 1: B1 Exoglucanase 1 with F251W
B10: 268— His (protein, UniProt P62694 18-513, looked up, variant R268H)
Exoglucanase 1: B1 Exoglucanase 1 with F251H
B11: 268A+411— Ala (protein, UniProt P62694 18-513, looked up, variant R268A R411A)
Exoglucanase 1: B1 Exoglucanase 1 with F251A, R394A
B12: 268_+411A Trp (protein, UniProt P62694 18-513, looked up, variant R268W R411A)
Exoglucanase 1: B1 Exoglucanase 1 with F251W, R394A
B13: 268_+411A Val (protein, UniProt P62694 18-513, looked up, variant R268V R411A)
Exoglucanase 1: B1 Exoglucanase 1 with F251V, R394A
B14: 268— Tyr (protein, UniProt P62694 18-513, looked up, variant R268Y)
Exoglucanase 1: B1 Exoglucanase 1 with F251Y
B15: 268_+411A Gln (protein, UniProt P62694 18-513, looked up, variant R268Q R411A)
Exoglucanase 1: B1 Exoglucanase 1 with F251Q, R394A
B16: 268_+411A Ala (protein, UniProt P62694 18-513, looked up, variant R268A R411A)
Exoglucanase 1: B1 Exoglucanase 1 with F251A, R394A
B17: 268— Cys (protein, UniProt P62694 18-513, looked up, variant R268C)
Exoglucanase 1: B1 Exoglucanase 1 with F251C
B18: 268— Glu (protein, UniProt P62694 18-513, looked up, variant R268E)
Exoglucanase 1: B1 Exoglucanase 1 with F251E
B19: 268_+411A Ile (protein, UniProt P62694 18-513, looked up, variant R268I R411A)
Exoglucanase 1: B1 Exoglucanase 1 with F251I, R394A
B20: 268_+411A Arg (protein, UniProt P62694 18-513, looked up, variant R411A)
Exoglucanase 1: B1 Exoglucanase 1 with F251R, R394A
B21: R411E (protein, UniProt P62694 18-513, looked up, variant R411E)
Exoglucanase 1: B1 Exoglucanase 1 with F251R, R394E
B22: R411Q (protein, UniProt P62694 18-513, looked up, variant R411Q)
Exoglucanase 1: B1 Exoglucanase 1 with F251R, R394Q
B23: R411L (protein, UniProt P62694 18-513, looked up, variant R411L)
Exoglucanase 1: B1 Exoglucanase 1 with F251R, R394L
B24: R411T (protein, UniProt P62694 18-513, looked up, variant R411T)
Exoglucanase 1: B1 Exoglucanase 1 with F251R, R394T
B25: R411D (protein, UniProt P62694 18-513, looked up, variant R411D)
Exoglucanase 1: B1 Exoglucanase 1 with F251R, R394D
B26: R268F (protein, UniProt P62694 18-513, looked up, variant R268F)
Exoglucanase 1: B1 Exoglucanase 1
B27: R411P (protein, UniProt P62694 18-513, looked up, variant R411P)
Exoglucanase 1: B1 Exoglucanase 1 with F251R, R394P

Assay: 4-MUL assay, specific activity (Example 2)
Format: biochemical
Conditions: primary screening; 10 μL enzyme; n=1
Experimental: (§1) CBH I activity on was measured using the 4-MUL assay using gluconolactone to inhibit any BG activity. The fluorogenic 4-MUL substrate (SIGMA) was prepared at 100 mM concentration in DMSO. Assays were run in black 96-well-flat-bottomed plates (Costar) and 4-MU fluorescence was read on a BioTek H4 plate reader (ex/em 365/450 nm). Assay plates were filled with buffer (final concentrations of 100 mM MES, pH 6, 25 mM gluconolactone, with or without cellobiose; cellobiose concentrations are listed with appropriate data sets), to which enzyme mixture was added (10-30 μl, 5 μg/mL final) and then assays were initiated by addition of 4-MUL (0.5 mM final concentration in 100 μl total volume). Enzyme mixtures were either CBH I variants from harvested supernatants or standards. Standards included: a negative control, consisting of harvested supernatant from the CBH I knock-out strain; a positive control, consisting of wild-type CBH I from harvested supernatants; and, a commercial CBH I standard (E-CBHI from Megazymes). Activity standards were run by serial dilution of commercial CBH I from 40 to 0.02 μg/mL and 4-MU (SIGMA, prepared at 20 mM in DMSO) (in dilution increments of 2-fold; all dilutions were made using harvested supernatant from the knock-out control). Kinetic rates were monitored over the first 15 mins following 4-MUL addition; initial rates were calculated based on data in the linear range. After 1 hr, a final endpoint read was taken, both before and after reaction quenching (100 μL of 200 mM Sodium Carbonate, pH 10.0). Activity was calculated for kinetic and endpoint reads; background resulting from the CBH I knock-out supernatant remained negligible. 4MU standard curves and HPLC quantification values were used to calculate specific activity.
The specific activity (SA) of the variant library was evaluated in a secondary 4-MUL assay. […] On average, a mutation at position 268 increases the specific activity by 2.5 fold over that of wild type. A mutation at 268 in combination with 411 is around 1.5-1.6 fold higher than wild-type, on average.

Row | Molecule | SA (μmol 4 MU/min/mg) (MUL Data)
1 | B1 | 0.70 μmol 4 MU/min/mg
2 | B2 | 1.80 μmol 4 MU/min/mg
3 | B3 | 1.72 μmol 4 MU/min/mg
4 | B4 | 13.97 μmol 4 MU/min/mg
5 | B5 | 0.58 μmol 4 MU/min/mg
6 | B6 | 1.00 μmol 4 MU/min/mg
7 | B7 | 0.67 μmol 4 MU/min/mg
8 | B8 | 0.97 μmol 4 MU/min/mg
9 | B9 | 1.31 μmol 4 MU/min/mg
10 | B10 | 1.21 μmol 4 MU/min/mg
11 | B11 | 1.19 μmol 4 MU/min/mg
12 | B12 | 0.81 μmol 4 MU/min/mg
13 | B13 | 1.33 μmol 4 MU/min/mg
14 | B14 | 0.65 μmol 4 MU/min/mg
15 | B15 | −0.45 μmol 4 MU/min/mg
16 | B16 | 0.52 μmol 4 MU/min/mg
17 | B17 | 0.86 μmol 4 MU/min/mg
18 | B18 | 0.88 μmol 4 MU/min/mg
19 | B19 | 0.89 μmol 4 MU/min/mg
20 | B20 | 0.38 μmol 4 MU/min/mg

Assay: 4-MUL cellobiose tolerance/inhibition assay, dose-response IC50 (Example 2)
Format: biochemical
Conditions: 1 mM cellobiose; primary screening; n=1
Experimental: as §1
Tolerance/inhibition values represent activity ratios and/or percent activity remaining/percent activity decreased in the presence versus the absence of cellobiose. Tolerant variants show less inhibition in the presence of cellobiose as compared to wild type, where an activity ratio of 1 (with vs. without a given concentration of cellobiose) is equivalent to 0% inhibition by cellobiose, or 100% tolerance. The effect of cellobiose on CBH I variant performance was monitored by dose-response in the 4MUL assay. Dose-response curves were generated by assaying variant activity in the presence of 6-8 different cellobiose concentrations ranging up to 100 mM cellobiose. CBH I samples were diluted to 5 μg/mL final concentration or were used directly in the case of protein quantification levels below 5 μg/mL. Half maximal inhibitory concentration (IC50) values were determined by plotting 4MUL activity versus cellobiose concentration and fitting with a four parameter dose-response fitting algorithm, with zero activity (or 100% inhibition) constrained to background activity (as established by CBH I knockout values) and with automatic outlier elimination (on GraphPad Prism 5).
Harvested supernatants from active variant isolates were evaluated for cellobiose tolerance at 1 mM cellobiose in the 4-MUL activity assay. Table 8 lists the tolerance of variants at 1 mM. […] Additional cellobiose concentrations at 0.25, 5, 10, 50, and 100 mM were tested leading to full dose-response curves for which half maximal inhibitory concentration (IC50) values were generated (Table 8). The IC50 values support that the variant library has decreased product inhibition, or increased tolerance to cellobiose, when compared to the wild-type enzyme (WT IC50=0.03 mM; see first entry, Table 8).
In one example, the cellobiose tolerance of the library was explored in more detail by generating dose-response curves and determining half maximal inhibitory concentration (IC50) values, the point at which the enzyme is 50% inhibited.

Row | Molecule | Tolerance at 1 mM CB (MUL Data)
21 | B1 | 21%
22 | B2 | 80%
23 | B3 | 99%
24 | B4 | 41%
25 | B5 | 107%
26 | B6 | 45%
27 | B7 | 44%
28 | B8 | 42%
29 | B9 | 42%
30 | B10 | 20%
31 | B11 | 83%
32 | B12 | 84%
33 | B13 | 93%
34 | B14 | 35%
35 | B16 | 65%
36 | B17 | 35%
37 | B18 | 52%
38 | B19 | 90%
39 | B20 | 72%

Same assay, conditions: Secondary screening; 30 μl harvested supernatant (CBH I levels lower than 5 μg/mL); cellobiose range 0.00085-100 mM; read-out: IC50

Row | Molecule | IC50
40 | B21 | 3380 µM
41 | B22 | 2510 µM
42 | B23 | 6390 µM
43 | B24 | 2020 µM
44 | B25 | 1640 µM
45 | B26 | 515 µM

Same assay, conditions: Secondary screening; CBH I levels normalized to 5 μg/mL; cellobiose range 0.00085-100 mM; read-out: IC50

Row | Molecule | IC50
46 | B27 | 1270 µM
47 | B24 | 2000 µM
48 | B25 | 1580 µM

Same assay, conditions: primary screening; 10 μL enzyme; cellobiose range 0.0001-100 mM; n=1; read-out: IC50 (MUL Data)

Row | Molecule | IC50
49 | B1 | 400 µM
50 | B2 | 7310 µM
51 | B3 | 25100 µM
52 | B4 | 670 µM
53 | B5 | 28000 µM
54 | B6 | 740 µM
55 | B7 | 900 µM
56 | B8 | 600 µM
57 | B9 | 610 µM
58 | B10 | 250 µM
59 | B11 | 5560 µM
60 | B12 | 7010 µM
61 | B13 | 7480 µM
62 | B14 | 450 µM
63 | B16 | 1330 µM
64 | B17 | 520 µM
65 | B18 | 870 µM
66 | B19 | 10400 µM
67 | B20 | 1600 µM

Same assay, conditions: secondary screening; CBH I levels normalized to 5 μg/mL; cellobiose range 0.0001-100 mM; read-out: Average IC50

Row | Molecule | IC50
68 | B27 | 1050 µM
